Data set [1] deals with the molecule itself. Kind of data set: cryo-EM structure; purified yeast F1Fo reconstituted in nanodiscs (POPC and cardiolipin, 12% by weight), incubated with BDQ (30 uM on ice 30 min, or 5 uM at room temperature 10 min); reconstruction focused on Fo at 4.2 A, whole F1Fo at 3.9 A.
In data set [2] the target is T1, subunit-a of the yeast mitochondrial F1Fo ATP synthase (S. cerevisiae, UniProt P00854 11-259).
T1 construct: ATP synthase subunit a (Fo sector), S. cerevisiae mitochondrial; The His6 tag of strain USY006 is on ATP2 (beta subunit), not on this chain; also called a-subunit
T1 sequence (looked up): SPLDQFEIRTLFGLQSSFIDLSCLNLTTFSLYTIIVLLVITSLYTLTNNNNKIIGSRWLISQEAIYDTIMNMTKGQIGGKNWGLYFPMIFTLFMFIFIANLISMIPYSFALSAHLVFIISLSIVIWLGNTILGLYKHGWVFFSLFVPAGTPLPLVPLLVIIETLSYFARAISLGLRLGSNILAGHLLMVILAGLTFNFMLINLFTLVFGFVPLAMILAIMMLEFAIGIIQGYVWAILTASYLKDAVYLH
The description is as above. The following applies: both partners purified.

B1: subunit-c of the yeast mitochondrial F1Fo ATP synthase (c10-ring) (natural protein, S. cerevisiae, UniProt P61829 1-76, looked up)
chain: MQLVLAAKYIGAGISTIGLLGAGIGIAIVFAALINGVSRNPSIKDTVFPMAILGFALSEATGLFCLMVSFLLLFGV
notes: ATP synthase subunit c (subunit 9, Fo sector), S. cerevisiae mitochondrial; as modelled in PDB 6WTD (chains Q and R are two of the ten copies; initial model PDB 6CP7); also called c-subunit; c-ring; copies: 10
A word on the stoichiometry N: it is the number of molecules, sites or subunits per partner or assembly. With B1, the “stoichiometry N” value in data set [1] was found to be 10. The binding result in data set [2] is on record as “binds”.

Values taken from article PMC7438494, “Bedaquiline inhibits the yeast and human mitochondrial ATP synthases” (Communications Biology, 2020).
